17 molecules from patent US20210238281A1 (INSTITUT NATIONAL DE LA SANTE ET DE LA RECHERCHE MEDICALE …, published 2021) can be followed below.

In test [1] the target is T1, recombinant human MOG protein (human, UniProt Q16653 30-154, limits assumed).
T1 construct: Bought recombinant protein; also called HMOG
T1 sequence (looked up): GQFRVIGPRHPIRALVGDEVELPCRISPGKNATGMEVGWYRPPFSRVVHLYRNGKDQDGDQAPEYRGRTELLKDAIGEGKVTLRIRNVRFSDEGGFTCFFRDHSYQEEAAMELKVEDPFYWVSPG
Put plainly: phage-scFv ELISA on coated recombinant human MOG (0.5 µg/well), anti-M13 HRP, OD450 over BSA background. The procedure: (§1) The binding characteristics of the scFvs expressed on the surface of the phages isolated during the screening were determined using an ELISA assay using the recombinant MOG protein (R&D system). Along with the selected clones, phage-scFv-8-18C5 is expressed to serve as a positive control for ELISA. Briefly, phage-scFv were produced in the form of clones isolated on a 96-well plate in 800 μl of 2YT/ampicillin/glucose cultures infected with the helper phage M13K07 (as described previously). The phages produced overnight at 26° C. were then recovered in the supernatants after 30 minutes of centrifugation at 3000 g. These supernatants were directly diluted 1/2 in PBS/4% BSA/0.1% Tween 20 and tested on Maxisorp immunoplates previously coated with 0.5 μg of human or murine MOG or PBS (background control (bdf) in BSA)/well and blocked with 4% BSA in PBS. After incubation for 2 hours at 37° C., the wells were washed 3 times with PBS/0.1% Tween-20 and bound phages-scfv were detected with anti-M13 HRP antibody (GE Healthcare). The plate is read at 450 nm (OD) on a plate reader (TECAN). The results are expressed as a ratio: OD on target/OD bdf (OD on an uncoated plate saturated with BSA) and the ratios are compared with that obtained for the positive control.
(In an ELISA, binding on a coated surface is turned into a signal by an enzyme label.)

Test [2] deals with T2, recombinant murine MOG protein (murine, UniProt Q61885 29-156, limits assumed).
T2 construct: Bought recombinant protein; also called MMOG
T2 sequence (looked up): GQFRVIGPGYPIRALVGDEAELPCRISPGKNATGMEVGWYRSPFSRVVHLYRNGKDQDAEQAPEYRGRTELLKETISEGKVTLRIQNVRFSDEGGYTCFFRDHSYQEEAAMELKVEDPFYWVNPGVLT
Put plainly: phage-scFv ELISA on coated recombinant murine MOG (0.5 µg/well), anti-M13 HRP, OD450 over BSA background. The procedure:
as §1

B1: anti-MOG MO3J-12 antibody (scFv, V domains shown)
VH: EVQLLESGGGLVQPGGSLRLSCAASGFTFSTYWMHWVRQAPGRGLVWVSRINTDGSSTDYADSVKGRFTISRDNAKNTLYLQMNSLRAEDTAVYSCARGGQLVAAANDNWLDPWGQGTLVTVSS
VL: AIQLTQSPSSLSASAGDRVTITCRASQSINNYLNWYQQKPGKAPKVLIYGASNLQSGVPSRFSGSGSGTDFTLTISSLQPEDFATYYCQQSYSTPRTFGQGTKVEIK
Take B1: the “ratio OD on target/OD bdf” value is 16.4 ratio in test [1] and 8.99 ratio in test [2].

B2: anti-MOG MO4H-03 antibody (scFv, V domains shown)
VH: QVQLVQSGTEVKKPGASVKVSCKVSGYTLTELSMHWVRQAPGKGLEWMGGFDPEDGETIYAQKFQGRVTMTEDTSTDTAYMELSSLRSEDTAVYYCATGATGAFDIWGQGTTVTVSS
VL: DIVMTQTPLSSPVTLGQPASISCRSSQSLVDSDGNTYLNWLQQRPGQPPRLLIYKISNRFSGVPDRFSGSGAGTEFTLKISRVEAEDVGVYYCMQATQFPHTFGQGTKLEIK
For the molecule B2, the figures for the “ratio OD on target/OD bdf” value in test [1] and in test [2] were 5.14 ratio and 9.12 ratio, respectively.

B3: anti-MOG MO3F-02 antibody (scFv, V domains shown)
VH: QVQLQQSGPGLVKPSQTLSLTCAISGDSVSSNSAAWNWIRKSPSRGLEWLGRTYYRSKWYNDYAVSVKSRITINPDTSKNQFSLQLSSVTPEDTAVYYCARASAGTFGYWGQGTLVTVSS
VL: DIVMTQSPSSLSASVGDRVTMTCRASQTINTYLNWYQQKPGKAPKLLIYAASTLQSGVPSRFSGSGSGTDFSLTISSLQPEDFATYYCQHGYNNPPFTFGPGTKVDIK
In the case of B3, the “ratio OD on target/OD bdf” value in test [1] was 13.8 ratio; in test [2] it was 22.1 ratio.

B4: anti-MOG MO3B-03 antibody (scFv, V domains shown)
VH: QVQLQQSGPGLVRPSQTLSLTCAISGDSVSSSSAAWNWVRSPSRGLEWLGRTYYRSKWYYDYAVSVKNRIAINPDTSKNQFSLHLNSVTPEDTAVYYCATGWLRGHLDYWGQGTLVTVSS
VL: AIQMTQSPSSVSASVGDRVTITCRATQSISTYLNWYQQKVGRGPKLLVYAASRLQTGVPSRFSGSGSGTDFTLTISSLQPEDSATYYCQQSYSAPPAFGGGTKVEIK
notes: T0004 labels followed
For the molecule B4, the “ratio OD on target/OD bdf” value stood at 6.23 ratio in test [1] and 5.55 ratio in test [2].

B5: anti-MOG MO4H-04 antibody (scFv, V domains shown)
VH: EVQLVQSGAEVKKPVASVKVSCKASGYTFTSYGISWVRQAPGQGLEWMGWISAYNGNTNYAQKLQGRVTMTTDTSTSTAYMELRSLRSDDTAVYYCARNMGCSSTSCFVSWFDPWGQGTLVTVSS
VL: QSALTQPPSASGSPGQSVTISCTGTHSDVGSFDSVSWYQQHPDKAPKLIIYDVNKRPAGVPHRFSGSKSGNTASLTVSGLQSEDEADYYCNSYAGVDNFVFGTGTKVTVL
On to B5, for which the “ratio OD on target/OD bdf” value was 9.36 ratio in test [1] and 9.78 ratio in test [2].

B6: anti-MOG MO3J-05 antibody (scFv, V domains shown)
VH: EVQLVQSGAEVKKPGASVKVSCKASGYTFTSYGISWVRQAPGQGLEWMGWISAYNGNTNYAQKLQGRVTMTTDTSTSTAYMELRSLRSDDTAVYYCARNMGCSSTSCFVSWFDPWGQGTLVTVSS
VL: not shown
B6: the “ratio OD on target/OD bdf” value worked out at 16.4 ratio in test [1] and 7.53 ratio in test [2].

B7: anti-MOG MO3J-19 antibody (scFv, V domains shown)
VH: EVQLVQSGAEVKKPGASVKVSCKASGYTFTSYGISWVRQAPGQGLEWMGWISAYNGNTNYAQKLQGRVTMTTDTSTSTAYMELRSLRSDDTAVYYCARNMGCSSTSCFVSWFDPWGQGTLVTVSS
VL: QSVLTQPPSASGTPGQRVTISCSGSTSNIGSQIVNWYQQLPGTAPRLIIYNDNERPSGVSDRFSGSKSDTSASLAISGLQSEDEADYYCAAWDDSLNGYVFGTGTKVTVL
Consider B7, for which the “ratio OD on target/OD bdf” value in test [1] was 11.7 ratio; in test [2] it was 5.66 ratio.

B8: anti-MOG MO4H-46 antibody (scFv, V domains shown)
VH: QVQLVQSGAEVKKPGASVKVSCKASGYTFTSYAMHWVRQAPGQRLEWMGWINAGNGNAKYSQKFQGRVTLTRDTSASTAYMKLSSLRSEDTAVYYCARGAPTYRYFDLWGRGTLVTVSS
VL: QSVLTQPPSVSAAPGQKVTISCSGSSSNIGNNYVAWYQQLPGTAPKLLIYDNNKRPSGIPDRFSGSKSGTSATLGITGLQTGDEADYYCGTSDSSLSAVVFGGGTKLTVL
Take B8: the figures for the “ratio OD on target/OD bdf” value in test [1] and in test [2] were 6.57 ratio and 4.68 ratio, respectively.

B9: anti-MOG MO3J-26 antibody (scFv, V domains shown)
VH: QVQLVQSGAEVKKPGSSVKVSCKASGGTFSTYTLSWVRQAPGKGLEWMGGFDPEDGETIYAQKFQGRVTMTEDTSTDTAYLELSSLRSDDTAVYYCAADEFWGPGTLVTVSS
VL: QSVLTQPPSVSAAPGQTVTISCSGSSSNIGNNYVSWYQQLPGTAPKLLIYDNNKRPSGIPDRFSGSKSGTSATLGITGLQTGDEADYYCGTWDSSLSAVVFGGGTKLTVL
As for B9, the entries for the “ratio OD on target/OD bdf” value in test [1] and in test [2] were 14.6 ratio and 3.62 ratio, respectively.

B10: anti-MOG MO4H-51 antibody (scFv, V domains shown)
VH: QVQLVQSGAEVKKPGASVKVSCKASGYTFTSYGMHWVRQAPGQRLEWMGWINPGNGNTKYSQKFQGRVTITRDTSASTAYMDLSSLRSEDTAVYYCARLPRIGGWFDPWGQGTLVTVSS
VL: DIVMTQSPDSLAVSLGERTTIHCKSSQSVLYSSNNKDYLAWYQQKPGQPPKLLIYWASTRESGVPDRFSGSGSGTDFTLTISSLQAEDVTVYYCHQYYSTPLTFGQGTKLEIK
As for B10, the “ratio OD on target/OD bdf” value in test [1] was determined as 3.46 ratio.

B11: anti-MOG MO4B-43 antibody (scFv, V domains shown)
VH: DEVQLLESGGGLVPGGSLRLSCEVSGFSFSNHAMHWVRQAPGKALEHLSVLGSDGRSTYYADSVKGRFTISRDISKTTVYLQMGSLRPGDMGVYYCARGLYGDHWDASDLWGQGTMVTVSS
VL: EIVMTQSPATLSVSPAERVILSCRASQSVGNNVAWFQQKPGQAPRLLIHGASSRATGIPTRFSGSGSGTELTLTISSLQSEDFAVYYCQQYGSAPITFGQGTRLEIK
As to B11, the “ratio OD on target/OD bdf” value in test [1] came to 5.82 ratio; in test [2], 9.56 ratio.

B12: anti-MOG MO4H-65 antibody (scFv, V domains shown)
VH: EVQLVQPGAEVKKPGASVKVSCKASDYTFTSYGISWVRQAPGQGLEWMGWISAYNGNTYYARKFGRVTMTTDTSTTTAYMELRRLRSEDTAVYYCARSGVDNIDYLFDYWGQGTLVTVSS
VL: EIVMTQSPGTMSVSPGESATLSCRASQSVSSNLAWYQQKPGQAPRLLIYGASTRATGLPARFSGSGSRTDFTLTISSLQPEDFATYYCQQTTSFPLTFSGGTKLEIT
As for B12, the “ratio OD on target/OD bdf” value in test [1] was determined as 2.44 ratio.

B13: anti-MOG MO3J-37 antibody (scFv, V domains shown)
VH: EVQLVESGGGLVQPGRSLRLSCAASGFTFDDYAMHWVRQAPGKGLEWVSGISWNSGSIGYADSVKGRFTISRDNAKNSLYLQMNSLRAEDTALYYCAKDMRAVAGTEGAFDIWGQGTMVTVSS
VL: QSVVTQPPSMSAAPGQKVTISCSGSSSNIGNNYVSWYQQLPGTAPKLLIYENNKRPSGISDRFSGSKSGTSATLGITGLQTGDEADYYCATGDSGMTLVFGGGTKLTVL
For the molecule B13, the entries for the “ratio OD on target/OD bdf” value in test [1] and in test [2] were 12.9 ratio and 6.66 ratio, respectively.

B14: anti-MOG MO3J-23 antibody (scFv, V domains shown)
VH: DQVQLVQSGAEVKPGASVKVSCKASGYTFTSYGISWVRQAPGQGLEWMGWISAYNGNTNYAQKLQGRVTMTTDTSTSTAYMELRSLRSDDTAVYYCARDPVGSLRPYYMDVWGEGTTVTVSS
VL: DIVMTQSPSTLSASVGDRVTITCRASQSISTWLAWYQQKPGKAPKLLIYAASSLQSGVPSRFSGSGSGTDFTLTISSLQPEDFATYYCQQSYSTPRTFGQGTKVEIK
For the molecule B14, the “ratio OD on target/OD bdf” value was found to be 15.9 ratio in test [1] and 7.46 ratio in test [2].

B15: anti-MOG MO4H-55 antibody (scFv, V domains shown)
VH: QVQLQQSGPGLVKPSQTLSLTCAISGDSVSSNSAAWNWIRQSPSRGLEWLGRTYYRSKWYNDYAESVKSRMTVTSDTSKNQVSLHLNSVTPEDTAVYYCAREHIAVPGVFDIWGQGTLVTVSS
VL: DVVMTQPPSASGTPGQGVTISCSGSSSNIGSNTVNWYQQLPGTAPKLLIYGSGQRPSGVPDRFSGSRSGTSASLAISGLQSEDEADYYCAAWDDSLNGRVFGQGTKVDIT
As to B15, the “ratio OD on target/OD bdf” value in test [1] stood at 2.99 ratio.

B16: anti-MOG MO4B-42 antibody (scFv, V domains shown)
VH: MAGSLQVDQVQLVQSGAEVKRPGESLKISCEGSGYSFTSSWIGWVRQMPGKGLECMGIIYPGDSDTRYSPSFQGHVTISADKSISTAYLQWSSLRASDTAMYYCARAYHSDYGFDFWGQGTLVTVSS
VL: EIVLTQPLSVSESPGKTVTISCTRSSGSIANNFVQWYQRRPGSSPTTVIYENDQRPSGVPDRFSGSIDSSSNSASLTITGLETQDEADYYCQSFNDDVGGGNSGGGTK
Regarding B16, the figures for the “ratio OD on target/OD bdf” value in test [1] and in test [2] were 6.11 ratio and 6.68 ratio, respectively.

B17: anti-MOG MO3J-72 antibody (scFv, V domains shown)
VH: EVQLVESGGGSVKPGGSLRLSCAASGFRFDDYAMHWVRQAPGKGLEWVSGISWNSGAIGYADSVQGRFTISGDNAKNTLYLQMNGLRVEDTAMYYCARDGHGDYPIDYWGQGTLVTVSS
VL: QSVLTQPPSVSGAPGQRVSISCTGSGSNIGAGFDVHWYQQVPGTTPKLLIYGNNNRPSGVPDRFSGSTSATSASLAITGLQADDEADYYCQSYDRSLRYVFGTGTKLTVL
With B17, the “ratio OD on target/OD bdf” value in test [1] was 2.05 ratio.
